Assay results taken from US20190328766, “COMPOSITIONS AND METHODS FOR SUPPRESSING MSUT2” (United States Government As Represented By The Department …, published 2019).

Experiments:
GST-MSUT2 [1] = target: T1, GST-MSUT2 (UniProt Q6PJT7 Q6PJT7:595-719); experiment: AlphaScreen; 25 mM HEPES, 100 mM NaCl, 0.04% casein, 0.2% Triton X-100, pH 7.4, room temp; inhibited by ebselen; details: tags: GST fusion; label: 5' TEG-Biotin (IDT)
T1 sequence: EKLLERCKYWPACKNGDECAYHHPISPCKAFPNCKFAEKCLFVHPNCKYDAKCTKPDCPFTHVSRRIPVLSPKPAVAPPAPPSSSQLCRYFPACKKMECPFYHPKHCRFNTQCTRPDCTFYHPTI
Procedure: The steps and set up for performing the ALPHA assay for MSUT2 binding to polyA are as follows: [0229] 1. Dilutions are in assay buffer (1×PAMA final concentration). [0230] 2. Scale is for 96 well assay in PE […] ½ area plate (total volume/well is 50 μL). [0231] 3. Assays set up in low light conditions [0232] 4. Add 20 μL of diluted donor bead (10 ug/mL) to well bringing well volume to 20 μL [0233] 5. Add 10 μL diluted biotin RNA (15 nM)) bringing well volume to 30 μL [0234] 6. Add 10 μL diluted GST-MSUT2 Protein (125 nM)) bringing well volume to 40 μL [0235] 7. Incubate at room temp for 30 minutes in the dark [0236] 8. […] 9. Incubate at room temp for 60 minutes in the dark [0238] 10. Read Plate using standard AlphaAssay settings on Perkin Elmer EnSpire® Alpha microplate reader

PABPN1 = target: T2, PABPN1 (Homo sapiens, UniProt Q86U42 Q86U42:1-306); experiment: SPR; Biacore T200, biotin capture, from kinetics at 0.6-1 uM protein; details: tags: GST fusion (pGEX6P-1), E. coli BL21(DE3), benzonase treated; label: 5' BiotinTEG
T2 sequence: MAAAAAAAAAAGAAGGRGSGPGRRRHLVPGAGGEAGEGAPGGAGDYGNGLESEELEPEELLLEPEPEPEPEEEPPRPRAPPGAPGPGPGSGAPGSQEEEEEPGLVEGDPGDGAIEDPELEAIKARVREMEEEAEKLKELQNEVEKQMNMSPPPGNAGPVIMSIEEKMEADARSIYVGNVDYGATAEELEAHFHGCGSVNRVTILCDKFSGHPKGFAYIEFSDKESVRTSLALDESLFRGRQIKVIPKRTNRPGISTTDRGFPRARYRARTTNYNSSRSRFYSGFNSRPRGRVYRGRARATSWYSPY
Procedure: (§1) SPR experiments were conducted on a Biacore T200 using the Biotin Capture Kit Series S following the manufacturer's instructions (GE). Biotin capture reagent was applied to the sensor chip at a flow rate of 2 μl/minute for 300 seconds. 1 nM biotinylated RNA (BiotinTEG-[…]; SEQ ID NO: 25) was captured at a flow rate of 10 μl/minute for 180 seconds. Samples were flowed across the sensor chip at 50 μl/minute for 120 seconds and the chip was regenerated for 120 seconds at a flow rate of 10 μl/minute.

[2] = target: T3, MSUT2 (ZC3H14) CCCH zinc finger domain (Homo sapiens, UniProt Q6PJT7 Q6PJT7:595-719); experiment: as above; details: tags: GST fusion (pGEX6P-1), E. coli BL21(DE3), benzonase treated; label: 5' BiotinTEG
T3 chain: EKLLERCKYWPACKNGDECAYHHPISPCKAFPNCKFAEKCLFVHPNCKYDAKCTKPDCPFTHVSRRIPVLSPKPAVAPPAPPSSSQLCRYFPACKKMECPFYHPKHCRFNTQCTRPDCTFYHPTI
Procedure: as §1

GST-MSUT2 [3] = target: T1, GST-MSUT2; experiment: FP; dose-dependent polarization increase; details: tags: GST fusion; label: fluorescein (FAM)

Does AAAAAAAAAAAAAAAAAAAA (ssRNA) [biotin-poly(A)20] bind (GST-MSUT2 [1])?
Result: binds

What does the source list for AAAAAAAAAAAAAAA (ssRNA) [biotin-poly(A)15]?
Kd (PABPN1): 237 nM; Kd [2]: 60 nM

Does AAAAAAAAAAAAAAA (ssRNA) [FAM-PolyA15] bind (GST-MSUT2 [3])?
Result: binds
